The target of this experiment is human alpha-synuclein (wild-type, recombinant) (human). The experiment can be described thus: cell-based or functional assay.

Polo like kinase 2 (PLK2) (enzyme), sequence (chain): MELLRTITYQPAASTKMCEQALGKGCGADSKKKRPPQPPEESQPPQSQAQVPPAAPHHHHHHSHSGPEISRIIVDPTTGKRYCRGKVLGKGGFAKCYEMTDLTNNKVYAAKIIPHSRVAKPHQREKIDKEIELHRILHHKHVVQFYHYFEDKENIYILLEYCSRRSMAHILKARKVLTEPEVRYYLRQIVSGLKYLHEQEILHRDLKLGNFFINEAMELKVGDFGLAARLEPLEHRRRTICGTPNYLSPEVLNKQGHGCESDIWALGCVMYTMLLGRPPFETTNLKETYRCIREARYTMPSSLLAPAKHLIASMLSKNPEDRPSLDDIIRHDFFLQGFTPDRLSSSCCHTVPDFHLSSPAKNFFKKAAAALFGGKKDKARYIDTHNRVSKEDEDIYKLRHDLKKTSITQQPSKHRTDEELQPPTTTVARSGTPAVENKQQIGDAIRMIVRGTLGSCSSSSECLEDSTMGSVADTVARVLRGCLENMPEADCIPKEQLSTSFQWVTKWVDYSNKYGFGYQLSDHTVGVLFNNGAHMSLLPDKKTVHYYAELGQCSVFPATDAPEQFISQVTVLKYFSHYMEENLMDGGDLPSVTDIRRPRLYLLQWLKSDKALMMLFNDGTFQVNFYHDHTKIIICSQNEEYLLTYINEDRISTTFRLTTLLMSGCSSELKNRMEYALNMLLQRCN
CDC7 cell division cycle 7-like 1, sequence (O00311 whole entry): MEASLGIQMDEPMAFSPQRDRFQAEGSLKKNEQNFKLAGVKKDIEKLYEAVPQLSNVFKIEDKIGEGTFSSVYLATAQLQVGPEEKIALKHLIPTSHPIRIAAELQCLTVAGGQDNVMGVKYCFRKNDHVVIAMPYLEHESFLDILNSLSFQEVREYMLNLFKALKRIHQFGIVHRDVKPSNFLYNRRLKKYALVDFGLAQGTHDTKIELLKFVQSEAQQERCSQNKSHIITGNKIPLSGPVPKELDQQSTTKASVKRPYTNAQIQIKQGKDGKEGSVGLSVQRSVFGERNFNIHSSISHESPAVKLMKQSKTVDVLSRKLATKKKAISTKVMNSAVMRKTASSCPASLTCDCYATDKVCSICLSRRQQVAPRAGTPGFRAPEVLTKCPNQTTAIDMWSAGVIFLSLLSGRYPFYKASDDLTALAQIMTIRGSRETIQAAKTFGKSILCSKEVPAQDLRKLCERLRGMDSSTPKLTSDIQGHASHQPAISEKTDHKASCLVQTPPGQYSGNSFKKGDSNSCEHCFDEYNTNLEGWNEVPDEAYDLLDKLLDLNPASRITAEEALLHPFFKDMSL
G protein-coupled receptor kinase 6, sequence (P43250 whole entry): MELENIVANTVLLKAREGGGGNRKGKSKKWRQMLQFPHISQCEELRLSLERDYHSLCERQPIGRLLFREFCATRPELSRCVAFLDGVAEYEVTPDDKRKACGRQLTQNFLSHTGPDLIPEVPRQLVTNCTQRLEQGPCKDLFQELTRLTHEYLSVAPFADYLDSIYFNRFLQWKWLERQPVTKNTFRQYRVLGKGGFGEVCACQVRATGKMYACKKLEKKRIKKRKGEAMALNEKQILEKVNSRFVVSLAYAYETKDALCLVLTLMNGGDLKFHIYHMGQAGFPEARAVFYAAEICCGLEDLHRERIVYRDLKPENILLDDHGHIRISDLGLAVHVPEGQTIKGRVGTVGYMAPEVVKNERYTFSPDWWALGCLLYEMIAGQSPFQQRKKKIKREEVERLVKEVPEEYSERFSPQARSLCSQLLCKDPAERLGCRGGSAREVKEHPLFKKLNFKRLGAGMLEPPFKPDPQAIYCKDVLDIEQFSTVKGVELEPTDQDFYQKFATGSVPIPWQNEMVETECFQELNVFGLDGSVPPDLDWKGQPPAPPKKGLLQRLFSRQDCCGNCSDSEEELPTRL
Aortic preferentially expressed gene 1, sequence (Q15772 other isoform, or with tags, fused parts or gaps limits assumed): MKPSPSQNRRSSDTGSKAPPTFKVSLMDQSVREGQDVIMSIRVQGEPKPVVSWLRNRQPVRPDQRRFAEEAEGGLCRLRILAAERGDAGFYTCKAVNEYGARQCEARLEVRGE

With “Aortic preferentially expressed gene 1 (from UniProt Q15772 1-113) (enzyme)”, the percentage of phospho-synuclein by ELISA, cDNA transfected into PEAK-Syn cells was found to be 8.9%.

As to Polo like kinase 2 (PLK2) (enzyme), the percent phospho-synuclein by ELISA, PLK2 alone transfected into HEK-synuclein cells worked out at 18.6%; the percent phospho-synuclein by ELISA, PLK2 and synuclein co-transfected into naive HEK cells is 60%; the percent phospho-synuclein by ELISA, cDNA transfected into PEAK-Syn cells turned out to be 33.2%; the percent synuclein phosphorylation by ELISA, PLK2 positive control in HEK-syn cells amounted to 65.8%. In addition, the phospho-synuclein by ELISA, PLK2 cDNA transfected into 293-synuclein cells worked out at 4.3 fold.

Consider “CDC7 cell division cycle 7-like 1 (from UniProt O00311 1-574) (enzyme)”, for which the percentage of phospho-synuclein by ELISA, cDNA transfected into PEAK-Syn cells is 8.9%.

For the substance “G protein-coupled receptor kinase 6 (from UniProt P43250 1-576) (enzyme)”, the percent phospho-synuclein by ELISA, cDNA transfected into PEAK-Syn cells is 18.9%.

Source of the values: patent US20110207796A1, “ALPHA-SYNUCLEIN KINASE” (Elan Pharma International Limited, priority 2008, published 2011).
